Measurements as given in patent publication US20130004519A1.

Tests used:
[1] = target: His-tagged human tenascin-C (human) (UniProt P24821); experiment: pull-down from HEK293 conditioned medium on tenascin-C-Sepharose 4B, nanoLC-MSMS
[2] = target: His-tagged human tenascin-C (human) (UniProt P24821); experiment: pull-down on tenascin-C-Sepharose 4B, spectral counting normalized to background proteins
[3] = target: His-tagged human tenascin-C (human) (UniProt P24821); experiment: pull-down on tenascin-C-Sepharose 4B, multiple reaction monitoring
[4] = target: horse fibronectin coupled to CNBr-activated Sepharose 4B (horse) (UniProt Q28377); experiment: pull-down from HEK293 conditioned medium on horse fibronectin-Sepharose 4B, nanoLC-MSMS
[5] = target: horse fibronectin coupled to CNBr-activated Sepharose 4B (horse) (UniProt Q28377); experiment: pull-down from HEK293 conditioned medium on horse fibronectin-Sepharose 4B, nanoLC-MSMS; listed as background protein (control column count 44)
[6] = target: horse fibronectin coupled to CNBr-activated Sepharose 4B (horse) (UniProt Q28377); experiment: pull-down from HEK293 conditioned medium on horse fibronectin-Sepharose 4B, nanoLC-MSMS; listed as background protein (control column score 720)
[7] = target: His-tagged human tenascin-C (human) (UniProt P24821); experiment: pull-down from HEK293 conditioned medium on tenascin-C-Sepharose 4B, nanoLC-MSMS; listed as background protein (control column count 44)
[8] = target: His-tagged human tenascin-C (human) (UniProt P24821); experiment: pull-down from HEK293 conditioned medium on tenascin-C-Sepharose 4B, nanoLC-MSMS; listed as background protein (control column score 720)
[9] = target: His-tagged human tenascin-C (human) (UniProt P24821); experiment: pull-down from HEK293 conditioned medium on tenascin-C-Sepharose 4B, nanoLC-MSMS; listed as background protein (control column count 32)
[10] = target: His-tagged human tenascin-C (human) (UniProt P24821); experiment: pull-down from HEK293 conditioned medium on tenascin-C-Sepharose 4B, nanoLC-MSMS; listed as background protein (control column score 833)
[11] = target: horse fibronectin coupled to CNBr-activated Sepharose 4B (horse) (UniProt Q28377); experiment: pull-down from HEK293 conditioned medium on horse fibronectin-Sepharose 4B, nanoLC-MSMS; listed as background protein (control column score 833)
[12] = target: horse fibronectin coupled to CNBr-activated Sepharose 4B (horse) (UniProt Q28377); experiment: pull-down from HEK293 conditioned medium on horse fibronectin-Sepharose 4B, nanoLC-MSMS; listed as background protein (control column count 32)

His-tagged human tenascin-C (human), sequence (P24821 23-2201): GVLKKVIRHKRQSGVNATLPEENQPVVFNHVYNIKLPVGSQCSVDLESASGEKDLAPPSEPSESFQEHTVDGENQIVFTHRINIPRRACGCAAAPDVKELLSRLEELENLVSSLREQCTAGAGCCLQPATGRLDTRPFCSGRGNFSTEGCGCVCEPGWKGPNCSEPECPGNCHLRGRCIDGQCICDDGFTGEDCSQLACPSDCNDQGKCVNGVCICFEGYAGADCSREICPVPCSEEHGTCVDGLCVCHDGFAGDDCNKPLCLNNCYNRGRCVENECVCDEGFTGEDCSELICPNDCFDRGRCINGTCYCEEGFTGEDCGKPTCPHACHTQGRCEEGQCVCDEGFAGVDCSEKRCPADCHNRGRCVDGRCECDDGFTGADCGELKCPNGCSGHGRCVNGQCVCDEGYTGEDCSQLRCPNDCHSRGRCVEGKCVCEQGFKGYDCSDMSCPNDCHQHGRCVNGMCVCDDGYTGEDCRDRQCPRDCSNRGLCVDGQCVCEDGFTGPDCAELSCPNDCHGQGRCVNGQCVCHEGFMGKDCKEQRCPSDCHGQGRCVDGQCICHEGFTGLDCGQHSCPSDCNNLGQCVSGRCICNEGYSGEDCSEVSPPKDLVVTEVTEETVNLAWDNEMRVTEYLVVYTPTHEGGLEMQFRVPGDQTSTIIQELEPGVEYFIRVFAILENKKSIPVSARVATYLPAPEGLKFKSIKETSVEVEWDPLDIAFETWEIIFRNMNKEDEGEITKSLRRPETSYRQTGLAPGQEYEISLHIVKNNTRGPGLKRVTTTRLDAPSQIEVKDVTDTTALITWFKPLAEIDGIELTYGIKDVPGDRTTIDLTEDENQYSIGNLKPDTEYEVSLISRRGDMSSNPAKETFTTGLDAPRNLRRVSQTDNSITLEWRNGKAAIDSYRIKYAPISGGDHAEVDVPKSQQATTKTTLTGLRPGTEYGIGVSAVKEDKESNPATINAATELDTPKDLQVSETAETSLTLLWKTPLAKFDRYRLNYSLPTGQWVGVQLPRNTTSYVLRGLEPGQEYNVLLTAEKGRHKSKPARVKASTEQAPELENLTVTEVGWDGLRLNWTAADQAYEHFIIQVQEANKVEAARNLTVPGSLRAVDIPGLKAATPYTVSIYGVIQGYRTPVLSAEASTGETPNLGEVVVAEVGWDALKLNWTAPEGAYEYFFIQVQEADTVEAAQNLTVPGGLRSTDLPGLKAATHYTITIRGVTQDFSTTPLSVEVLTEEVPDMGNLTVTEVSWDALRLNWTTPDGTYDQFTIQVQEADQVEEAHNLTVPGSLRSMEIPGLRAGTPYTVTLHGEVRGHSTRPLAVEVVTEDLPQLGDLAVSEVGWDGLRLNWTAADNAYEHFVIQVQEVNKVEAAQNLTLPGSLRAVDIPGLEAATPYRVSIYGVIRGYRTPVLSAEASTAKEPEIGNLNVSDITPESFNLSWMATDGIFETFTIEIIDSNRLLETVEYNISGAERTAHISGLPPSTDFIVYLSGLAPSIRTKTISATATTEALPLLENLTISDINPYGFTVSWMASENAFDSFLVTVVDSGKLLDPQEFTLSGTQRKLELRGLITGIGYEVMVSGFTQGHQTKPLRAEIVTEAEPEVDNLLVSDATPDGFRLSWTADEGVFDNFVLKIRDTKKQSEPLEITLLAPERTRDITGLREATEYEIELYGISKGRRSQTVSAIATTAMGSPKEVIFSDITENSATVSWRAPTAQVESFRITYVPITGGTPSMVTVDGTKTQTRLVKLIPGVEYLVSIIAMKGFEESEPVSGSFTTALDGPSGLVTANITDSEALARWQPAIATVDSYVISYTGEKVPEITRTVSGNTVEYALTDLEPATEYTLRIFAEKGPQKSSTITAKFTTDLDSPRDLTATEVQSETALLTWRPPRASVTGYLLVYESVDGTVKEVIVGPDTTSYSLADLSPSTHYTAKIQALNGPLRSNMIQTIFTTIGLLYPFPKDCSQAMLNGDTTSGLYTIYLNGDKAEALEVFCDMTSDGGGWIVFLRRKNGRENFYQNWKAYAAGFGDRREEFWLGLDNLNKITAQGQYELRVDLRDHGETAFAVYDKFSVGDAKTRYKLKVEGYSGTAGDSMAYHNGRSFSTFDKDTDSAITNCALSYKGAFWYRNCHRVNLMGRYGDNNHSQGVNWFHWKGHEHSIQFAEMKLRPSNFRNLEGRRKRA
horse fibronectin coupled to CNBr-activated Sepharose 4B (horse), sequence (Q28377 32-2477 limits assumed): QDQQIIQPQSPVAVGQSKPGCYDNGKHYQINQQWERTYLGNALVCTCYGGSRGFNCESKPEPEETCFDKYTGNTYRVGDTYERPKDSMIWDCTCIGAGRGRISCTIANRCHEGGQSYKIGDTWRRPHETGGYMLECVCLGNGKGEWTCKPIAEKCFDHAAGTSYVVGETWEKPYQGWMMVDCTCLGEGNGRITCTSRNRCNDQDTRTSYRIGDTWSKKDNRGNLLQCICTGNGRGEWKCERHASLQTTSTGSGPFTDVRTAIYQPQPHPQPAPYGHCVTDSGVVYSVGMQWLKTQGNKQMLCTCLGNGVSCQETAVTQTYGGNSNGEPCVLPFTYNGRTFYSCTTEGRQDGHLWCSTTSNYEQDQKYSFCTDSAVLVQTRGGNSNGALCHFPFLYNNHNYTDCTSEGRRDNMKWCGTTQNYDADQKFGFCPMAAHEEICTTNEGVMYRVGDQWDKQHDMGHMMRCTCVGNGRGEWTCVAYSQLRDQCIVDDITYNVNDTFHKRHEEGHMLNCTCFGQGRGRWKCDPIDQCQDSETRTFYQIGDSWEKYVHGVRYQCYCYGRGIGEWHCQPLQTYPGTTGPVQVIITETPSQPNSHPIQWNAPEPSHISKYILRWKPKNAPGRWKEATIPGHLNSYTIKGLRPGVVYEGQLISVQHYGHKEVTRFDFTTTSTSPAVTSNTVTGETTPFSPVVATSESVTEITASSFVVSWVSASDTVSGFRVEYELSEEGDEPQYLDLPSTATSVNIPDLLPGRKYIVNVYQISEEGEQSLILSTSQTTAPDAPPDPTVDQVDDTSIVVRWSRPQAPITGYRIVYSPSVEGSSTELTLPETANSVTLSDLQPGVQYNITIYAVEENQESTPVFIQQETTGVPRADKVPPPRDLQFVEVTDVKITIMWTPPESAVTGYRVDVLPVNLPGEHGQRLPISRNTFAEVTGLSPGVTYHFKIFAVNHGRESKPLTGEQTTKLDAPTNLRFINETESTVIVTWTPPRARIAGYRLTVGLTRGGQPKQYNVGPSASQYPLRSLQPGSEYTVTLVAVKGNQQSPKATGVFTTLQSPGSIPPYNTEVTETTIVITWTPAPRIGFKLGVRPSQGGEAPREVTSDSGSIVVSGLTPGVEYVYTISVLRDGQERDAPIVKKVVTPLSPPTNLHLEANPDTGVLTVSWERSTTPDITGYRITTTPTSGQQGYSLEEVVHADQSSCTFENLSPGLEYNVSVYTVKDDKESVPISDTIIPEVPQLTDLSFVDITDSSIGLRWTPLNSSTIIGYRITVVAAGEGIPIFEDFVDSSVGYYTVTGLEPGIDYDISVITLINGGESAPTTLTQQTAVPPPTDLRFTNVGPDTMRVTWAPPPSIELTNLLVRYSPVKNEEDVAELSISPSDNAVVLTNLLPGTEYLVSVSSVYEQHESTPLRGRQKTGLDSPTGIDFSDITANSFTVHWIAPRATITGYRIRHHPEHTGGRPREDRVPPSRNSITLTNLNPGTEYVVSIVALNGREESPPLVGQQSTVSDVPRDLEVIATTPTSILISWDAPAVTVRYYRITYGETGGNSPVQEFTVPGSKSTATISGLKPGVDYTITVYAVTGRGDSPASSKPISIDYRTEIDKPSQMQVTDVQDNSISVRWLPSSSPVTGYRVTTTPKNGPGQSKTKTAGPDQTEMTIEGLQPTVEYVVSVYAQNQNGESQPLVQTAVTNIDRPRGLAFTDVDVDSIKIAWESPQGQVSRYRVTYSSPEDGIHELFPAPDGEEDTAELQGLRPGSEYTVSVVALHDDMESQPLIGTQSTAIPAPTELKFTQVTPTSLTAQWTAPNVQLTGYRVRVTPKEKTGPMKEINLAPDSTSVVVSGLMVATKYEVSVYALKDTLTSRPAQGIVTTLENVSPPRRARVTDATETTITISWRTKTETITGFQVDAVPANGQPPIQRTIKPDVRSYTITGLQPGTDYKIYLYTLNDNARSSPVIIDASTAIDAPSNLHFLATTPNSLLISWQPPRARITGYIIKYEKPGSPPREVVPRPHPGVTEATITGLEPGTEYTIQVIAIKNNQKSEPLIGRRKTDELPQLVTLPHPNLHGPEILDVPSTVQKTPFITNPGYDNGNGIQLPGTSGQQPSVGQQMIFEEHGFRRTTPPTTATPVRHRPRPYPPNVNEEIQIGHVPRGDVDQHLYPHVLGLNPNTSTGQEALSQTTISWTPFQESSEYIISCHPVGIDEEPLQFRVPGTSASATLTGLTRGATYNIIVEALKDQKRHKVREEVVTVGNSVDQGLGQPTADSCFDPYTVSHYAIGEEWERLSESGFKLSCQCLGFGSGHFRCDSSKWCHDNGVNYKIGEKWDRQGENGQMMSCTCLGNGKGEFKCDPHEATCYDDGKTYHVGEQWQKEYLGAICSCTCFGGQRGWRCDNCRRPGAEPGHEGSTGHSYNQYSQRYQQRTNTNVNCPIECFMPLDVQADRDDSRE

Phosphoglycerate kinase 1 (from UniProt P00558 2-417) (enzyme)
MASCOT Score (tenascin-C) [1]: 402 | spectrum count (tenascin-C) [1]: 26 | normalized enrichment (spectrum count), tenascin-C against control [2]: 3.3 fold | normalized enrichment (MRM), tenascin-C against control [3]: 1.2 fold

Nidogen-2 (from UniProt Q14112 31-1375)
MASCOT Score (tenascin-C) [1]: 437 | spectrum count (tenascin-C) [1]: 15 | normalized enrichment (spectrum count), tenascin-C against control [2]: 5.8 fold | normalized enrichment (MRM), tenascin-C against control [3]: 2.2 fold

Fibronectin from HEK293 conditioned medium (from UniProt P02751 32-2477)
MASCOT Score (fibronectin) [4]: 2210 | spectrum count (fibronectin) [4]: 135

Fibronectin from HEK293 conditioned medium, P02751 32-2477
MASCOT Score (tenascin-C) [1]: 544 | spectrum count (tenascin-C) [1]: 25 | normalized enrichment (spectrum count), tenascin-C against control [2]: 19.2 fold | normalized enrichment (MRM), tenascin-C against control [3]: 4.8 fold

Peptidyl-prolyl cis-trans isomerase A (PPIA) from HEK293 conditioned medium (from UniProt P62937 2-165) (enzyme)
spectrum count (fibronectin) [5]: 36 | MASCOT Score (fibronectin) [6]: 676 | spectrum count (tenascin-C) [7]: 56 | MASCOT Score (tenascin-C) [8]: 675

Clusterin (from UniProt P10909 23-449)
MASCOT Score (tenascin-C) [1]: 258 | spectrum count (tenascin-C) [1]: 11 | normalized enrichment (spectrum count), tenascin-C against control [2]: 4.2 fold | normalized enrichment (MRM), tenascin-C against control [3]: 2.1 fold

alpha-enolase (ENOA) from HEK293 conditioned medium (from UniProt P06733 2-434) (enzyme)
spectrum count (tenascin-C) [9]: 42 | MASCOT Score (tenascin-C) [10]: 1040 | MASCOT Score (fibronectin) [11]: 701 | spectrum count (fibronectin) [12]: 26
